B1: BBSome complex member BBS2 (Homo sapiens), Q9BXC9 (parent)
chain: MLLPVFTLKLRHKISPRMVAIGRYDGTHPCLAAATQTGKVFIHNPHTRNQHVSASRVFQSPLESDVSLLSINQAVSCLTAGVLNPELGYDALLVGTQTNLLAYDVYNNSDLFYREVADGANAIVLGTLGDISSPLAIIGGNCALQGFNHEGSDLFWTVTGDNVNSLALCDFDGDGKKELLVGSEDFDIRVFKEDEIVAEMTETEIVTSLCPMYGSRFGYALSNGTVGVYDKTSRYWRIKSKNHAMSIHAFDLNSDGVNELITGWSNGKVDARSDRTGEVIFKDNFSSAIAGVVEGDYRMDGHIQLICCSVDGEIRGYLPGTAEMRGNLMDTSAEQDLIRELSQKKQNLLLELRNYEENAKAELASPLNEADGHRGIIPANTRLHTTLSVSLGNETQTAHTELRISTSNDTIIRAVLIFAEGIFTGESHVVHPSIHNLSSSICIPIVPPKDVPVDLHLKAFVGYRSSTQFHVFESTRQLPRFSMYALTSLDPASEPISYVNFTIAERAQRVVVWLGQNFLLPEDTHIQNAPFQVCFTSLRNGGHLHIKIKLSGEITINTDDIDLAGDIIQSMASFFAIEDLQVEADFPVYFEELRKVLVKVDEYHSVHQKLSADMADHSNLIRSLLVGAEDARLMRDMKTMKSRYMELYDLNRDLLNGYKIRCNNHTELLGNLKAVNQAIQRAGRLRVGKPKNQVITACRDAIRSNNINTLFKIMRVGTASS
partner: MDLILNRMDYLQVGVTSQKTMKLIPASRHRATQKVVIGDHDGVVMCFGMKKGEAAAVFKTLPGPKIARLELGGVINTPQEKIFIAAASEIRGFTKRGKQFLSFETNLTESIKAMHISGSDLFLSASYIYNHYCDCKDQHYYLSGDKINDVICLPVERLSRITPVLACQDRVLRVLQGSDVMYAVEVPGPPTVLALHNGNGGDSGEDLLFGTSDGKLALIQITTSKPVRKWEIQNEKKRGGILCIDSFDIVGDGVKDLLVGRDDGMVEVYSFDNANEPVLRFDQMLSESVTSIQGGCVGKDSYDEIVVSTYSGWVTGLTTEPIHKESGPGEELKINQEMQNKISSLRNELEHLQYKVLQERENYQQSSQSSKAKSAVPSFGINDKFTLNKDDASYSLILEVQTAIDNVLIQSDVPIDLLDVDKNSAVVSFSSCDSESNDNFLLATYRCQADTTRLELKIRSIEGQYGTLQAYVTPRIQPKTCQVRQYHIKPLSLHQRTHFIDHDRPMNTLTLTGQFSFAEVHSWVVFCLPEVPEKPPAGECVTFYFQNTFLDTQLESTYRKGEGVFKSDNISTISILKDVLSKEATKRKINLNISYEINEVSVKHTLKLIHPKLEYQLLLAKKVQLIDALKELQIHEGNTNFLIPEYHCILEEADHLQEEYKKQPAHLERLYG

Variants of: B1
Conditions: with BBS7, Q8IWZ6-2

| Variant | effect of a mutation on the interaction |
| --- | --- |
| H428E | with no effect |
| H428K | with no effect |
| H428A | with no effect |
| I445K | with no effect |
| I445E | disrupting interaction strength |
| I445A | disrupting interaction strength |
| S433E | with no effect |
| S433A | with no effect |
| S433K | with no effect |
| S427E | with no effect |
| S427A | with no effect |
| S427K | with no effect |
| P447K | disrupting interaction strength |
| P447E | disrupting interaction strength |
| P447A | with no effect |
| P432E | with no effect |
| P432K | with no effect |
| P432A | with no effect |
| S440K | with no effect |
| S440F | disrupting interaction strength |
| S440A | disrupting interaction strength |
| S440E | disrupting interaction strength |
| V430K | with no effect |
| V430A | with no effect |

| Variant | effect of a mutation on the interaction |
| --- | --- |
| V430E | with no effect |
| C442K | with no effect |
| C442A | with no effect |
| C442E | with no effect |
| H435K | with no effect |
| H435E | with no effect |
| H435A | with no effect |
| S438A | with no effect |
| S438E | with no effect |
| S438K | with no effect |
| L437A | with no effect |
| L437K | disrupting interaction strength |
| L437E | with no effect |
| I441A | with no effect |
| I441R | disrupting interaction strength |
| I441E | disrupting interaction strength |
| I441K | with no effect |
| I443A | with no effect |
| I443K | disrupting interaction strength |
| I443E | with no effect |
| S439E | with no effect |
| S439K | with no effect |
| S439A | with no effect |
| V446A | with no effect |

| Variant | effect of a mutation on the interaction |
| --- | --- |
| V446K | with no effect |
| V446E | with no effect |
| G425A | with no effect |
| G425K | with no effect |
| G425E | with no effect |
| T424K | with no effect |
| I434E | with no effect |
| I434K | with no effect |
| I434A | with no effect |
| P448A | with no effect |
| V429K | with no effect |
| V429E | with no effect |
| V429A | with no effect |
| H431E | with no effect |
| H431A | with no effect |
| H431K | with no effect |
| E426K | with no effect |
| E426A | with no effect |
| N436E | with no effect |
| N436K | with no effect |
| N436A | with no effect |
| P444E | with no effect |
| P444A | with no effect |
| P444K | with no effect |

The next lines start with the values.

| effect of a mutation on the interaction | Variant |
| --- | --- |
| with no effect | F460K |
| with no effect | F460E |
| with no effect | F460A |
| with no effect | Q477K |
| with no effect | Q477A |
| with no effect | Q477E |
| with no effect | A459E |
| disrupting interaction strength | A459K |
| with no effect | Y463K |
| with no effect | Y463E |
| disrupting interaction strength | Y463A |
| with no effect | L455K |
| with no effect | L455A |
| disrupting interaction strength | L455E |
| with no effect | S465E |
| with no effect | S465K |
| with no effect | S465A |
| with no effect | R476E |
| with no effect | R476K |
| with no effect | R476A |
| disrupting interaction strength | P479E |
| disrupting interaction strength | P479A |
| with no effect | P479K |
| with no effect | H470E |
| with no effect | H470K |

| effect of a mutation on the interaction | Variant |
| --- | --- |
| with no effect | H470A |
| with no effect | R480A |
| with no effect | L478E |
| disrupting interaction strength | L478K |
| disrupting interaction strength | L478A |
| with no effect | F469E |
| disrupting interaction strength | F469M |
| disrupting interaction strength | F469S |
| with no effect | F469K |
| with no effect | F469A |
| with no effect | D454K |
| with no effect | D454A |
| with no effect | D454E |
| with no effect | H456K |
| with no effect | H456A |
| with no effect | H456E |
| with no effect | G462A |
| with no effect | G462E |
| with no effect | G462K |
| with no effect | R464E |
| disrupting interaction strength | R464T |
| with no effect | R464A |
| with no effect | R464K |
| disrupting interaction strength | V461M |
| with no effect | V461K |

| effect of a mutation on the interaction | Variant |
| --- | --- |
| disrupting interaction strength | V461A |
| with no effect | V461E |
| with no effect | F472K |
| disrupting interaction strength | F472L |
| with no effect | F472E |
| disrupting interaction strength | F472A |
| with no effect | V451A |
| with no effect | V451K |
| with no effect | V451E |
| with no effect | Q468E |
| with no effect | Q468K |
| disrupting interaction strength | Q468L |
| with no effect | Q468A |
| with no effect | K449E |
| with no effect | K449A |
| disrupting interaction strength | S466E |
| with no effect | S466K |
| with no effect | S466A |
| with no effect | E473K |
| with no effect | E473A |
| with no effect | D450E |
| disrupting interaction strength | D450K |
| with no effect | D450A |
| with no effect | T467E |
| with no effect | T467K |

| effect of a mutation on the interaction | Variant |
| --- | --- |
| with no effect | T467A |
| with no effect | T475E |
| with no effect | T475K |
| with no effect | T475A |
| with no effect | V471A |
| with no effect | V471K |
| with no effect | V471E |
| with no effect | P448E |
| with no effect | P448K |
| with no effect | S474A |
| with no effect | S474E |
| with no effect | S474K |
| with no effect | L457A |
| disrupting interaction strength | L457K |
| disrupting interaction strength | L457C |
| disrupting interaction strength | L457E |
| with no effect | K458A |
| with no effect | K458E |
| with no effect | V453E |
| with no effect | V453A |
| disrupting interaction strength | V453K |
| with no effect | P452A |
| with no effect | P452E |
| with no effect | P452K |

— IntAct's records for PubMed 29039417
